Measurements: US20180237507A1 (CITY OF HOPE, published 2018)

Molecular target: BoNT serotype A (Clostridium botulinum, UniProt P0DPI0 2-1296)
Assay: affinity; method not stated (yeast display affinity maturation)

BoNT serotype A, sequence (P0DPI0 2-1296 limits assumed): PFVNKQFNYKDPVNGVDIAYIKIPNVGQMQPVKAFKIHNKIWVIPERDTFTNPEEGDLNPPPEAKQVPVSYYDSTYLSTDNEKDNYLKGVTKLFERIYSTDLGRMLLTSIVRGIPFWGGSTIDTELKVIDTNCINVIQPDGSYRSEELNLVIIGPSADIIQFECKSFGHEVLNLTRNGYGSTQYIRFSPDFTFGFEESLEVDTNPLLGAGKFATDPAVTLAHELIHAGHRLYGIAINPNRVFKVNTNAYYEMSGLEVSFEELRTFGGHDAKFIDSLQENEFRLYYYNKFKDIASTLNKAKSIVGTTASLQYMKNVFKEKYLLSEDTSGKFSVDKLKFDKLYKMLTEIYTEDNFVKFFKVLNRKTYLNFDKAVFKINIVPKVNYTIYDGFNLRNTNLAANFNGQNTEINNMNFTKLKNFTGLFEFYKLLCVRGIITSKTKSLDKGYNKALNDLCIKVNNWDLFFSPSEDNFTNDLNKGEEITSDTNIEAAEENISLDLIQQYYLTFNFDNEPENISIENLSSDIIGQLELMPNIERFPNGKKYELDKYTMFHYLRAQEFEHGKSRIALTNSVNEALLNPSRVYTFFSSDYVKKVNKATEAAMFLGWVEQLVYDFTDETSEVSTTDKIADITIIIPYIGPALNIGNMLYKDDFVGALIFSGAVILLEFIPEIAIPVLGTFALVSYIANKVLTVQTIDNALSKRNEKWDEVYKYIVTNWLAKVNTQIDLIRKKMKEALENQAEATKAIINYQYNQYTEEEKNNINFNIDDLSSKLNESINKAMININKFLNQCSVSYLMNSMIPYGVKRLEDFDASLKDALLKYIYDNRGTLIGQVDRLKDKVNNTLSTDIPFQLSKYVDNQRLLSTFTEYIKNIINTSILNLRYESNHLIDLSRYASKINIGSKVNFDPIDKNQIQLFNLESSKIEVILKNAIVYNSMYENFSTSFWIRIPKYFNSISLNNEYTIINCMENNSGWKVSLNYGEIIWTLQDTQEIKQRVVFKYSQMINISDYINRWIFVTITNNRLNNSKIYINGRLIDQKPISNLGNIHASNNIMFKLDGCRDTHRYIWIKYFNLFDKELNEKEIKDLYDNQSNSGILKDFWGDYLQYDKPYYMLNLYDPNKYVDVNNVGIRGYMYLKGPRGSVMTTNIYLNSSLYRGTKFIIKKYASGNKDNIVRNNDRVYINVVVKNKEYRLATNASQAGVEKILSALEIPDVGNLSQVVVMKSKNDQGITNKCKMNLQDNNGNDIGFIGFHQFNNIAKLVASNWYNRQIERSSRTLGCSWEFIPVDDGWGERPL

B1: H7 VHH (VHH)
VHH: QVQLVESGGGLVQVGGSLRLSCVVSGSDISGIAMGWYRQAPGKRREMVADIFSGGSTDYAGSVKGRFTISRDNAKKTSYLQMNNVKPEDTGVYYCRLYGSGDYWGQGTQVTVSS
- Kd: 42 pM
